Results on one protein are retold here after US20060089489A1 (MATSUSHITA ELECTRIC INDUSTRIAL, published 2006).

This data set deals with the molecule itself. Nature of the data set: CD spectrometry of 300 uM peptide in phosphate buffer pH 7.5 (self-assembly into nanofiber).

B1: Glu-Phe-Ile-Val-Ile-Phe-Lys peptide (EK7aa) (peptide)
peptide: EFIVIFK
notes: Synthetic designed peptide that self-assembles into amyloid-like nanofibers
As for B1, the binding result was “binds”.
